Data reported in a protein production outcome set (Wang et al. 2014).

Test: label from the status in PepcDB records

| Sequence | protein production |
| --- | --- |
| LIKRMNAEELLHEKIEFNDLLLRSVENPIFWRDSRGFLIDCNAQFTRLLGISKDRLVGRSVYDICGDLHTPVLEGLLTKVLQGEGEQYDIDFKNHEGETLSFLVQASEYHDKSEKVAGVVTILFDMT | failed |
| MSLIYAQILAGGKGTRMGNVSMPKQFLPLNGKPIIVHTVEKFILNTRFDKILISSPKEWMNHAEDNIKKYISDDRIVVIEGGEDRNETIMNGIRFVEKTYGLTDDDIIVTHDAVRPFLTHRIIEENIDAALETGAVDTVIEALDTIVESSNHEVITDIPVRDHMYQGQTPQSFNMKKVFNHYQNLTPEKKQILTDACKICLLAGDDVKLVKGEIFNIKITTPYDLKVANAIIQERIANEGHHHHHH | not failed |
| MKEIESKTSAKIITDTFVRIFLIFSLLITIIVSGIVAFTSLQIRKSEGAALLNSVQTAATNGQVNWDEFKLDSEKDEKATFVRLTSPSGQREESQGTTNFLKSRKSWGNFSLLRDDIFLYSSKTSKNGTKAELWLNINVVVKSMIRAILVIIAVMIFLFFLALILIQKAARTISQPLTDIVVATDGKDVKQVPVSKNPLEVHQLSQSFNRLLNRLNQKIENEQQFVSDASHELRTPVAAIRGHVNLLKRRWHEHPEIVDESLSYIDEESMRMKVLIENLLTISRGNHLEIKKERINLSKFTDKVVSEIQLALRQKINFDIQTDLFVSMDKMALYKIIIIFLENAGKYSPSNSEITINITLENHQVDFQVADEGIGVPEEEKDNIFERFYRIDKSRSSEIPGTGLGLAIAKEYAQLNDAKVFVSNNSPKGSTFHLLMESIEN | failed |
| MKIESLDLPDEIKRFYENSGILELYPPQAEAVEKGLLEGKNLLAAIPTASGKTLLAELAMLKSVLNGGKALYIVPLRALASEKFRRFQEFSVLGMRVGISTGDYDRRDEGLGINDIIVATSEKTDSLLRNETAWMQEISVVVADEVHLIDSPDRGPTLEITLSKLRRMNPSCQVLALSATVGNADELAAWLDAELVLSEWRPTDLMEGVFYNGIFYCKDKEKPVGQPTKDEAVNLVLDTIKEGGQCLVFESSRKNCMGFAKKAVSAVKKTLSNEDRETLAGIADEIIENSETDVSSVLATCVRSGTAFHHAGLTTPLRELVENGFREGRIKIISSTPTLAAGLNLPARRVIIRSYRRYSSDSGMQPIPVLEYKQMAGRAGRPRLDPYGEAVLLAKSYEEFVFLFEKYIEAGAEDIWSKLGTENALRTHILSTISNGFARTREELMDFLEATFFAFQYSNFGLSAVVDECLDFLRREGMLEKDPDALVSTVFGKLVSRLYIDPLSAALIAKGLREAGTLTELTLLHLICSTPDMRLMYMRSQDYQEVNDYVMAHAGEFSKVPNPFNIAEYEWFLGEVKTSLLLMDWIHEKPENEICLKFGIGEGDIHATADIAEWIMHVTAQLAGLLDLKGAKEASELEKRIRYGAAPELMDLLDIRSVGRVRARKLYEAGFKSTAELAAASPEHIAVLVGPKITERIFKQIGRREAVSEFSDIEPLEKGSSDGQRTISDY | failed |
| MGNTIRALVAFIPADRCQNYVVRDLREMPLDKMVDLSGSQLRRFPLHVCSFRELVKLYLSDNHLNSLPPELGQLQNLQILALDFNNFKALPQVVCTLKQLCILYLGNNKLCDLPSELSLLQNLRTLWIEANCLTQLPDVVCELSLLKTLHAGSNALRLLPGQLRRLQELRTIWLSGNRLTDFPTVLLHMPFLEVIDVDWNSIRYFPSLAHLSSLKLVIYDHNPCRNAPKVAKGVRRVGRWAEETPEPDPRKARRYALVREESQELQAPVPLLPPTNS | failed |
| MKYSLCTISFRHQLISFTDIVQFAYENGFEGIELWGTHAQNLYMQEYETTERELNCLKDKTLEITMISDYLDISLSADFEKTIEKCEQLAILANWFKTNKIRTFAGQKGSADFSQQERQEYVNRIRMICELFAQHNMYVLLETHPNTLTDTLPSTLELLGEVDHPNLKINLDFLHIWESGADPVDSFQQLRPWIQHYHFKNISSADYLHVFEPNNVYAAAGNRTGMVPLFEGIVNYDEIIQEVRDTDHFASLEWFGHNAKDILKAEMKVLTNRNLEVVTS | not failed |
| MTDGEAVSAAAGPGAEGPPGPVGHWAPGSHILWRYRENGGPHVHIARPVTVVRDDADLLAVWLAPGTECVKPVLADGTPVHLEPLATRYTKPRTVQRDQWFGTGVLKLARPGEAWSVWLFWDPGWRFKNWYVNLERPLTRWEGGVDSEDHFLDISVHPDRTWHWRDEDEFAQALRDGLMDPASAGRVRRAGRSAVAEIRAWGSPFADGWEHWRPDPAWPVPSLPGDWDRTPAHVSS | not failed |
| AEGTRGRSSTARCSLFGSDFVNTFDGSMYSFAGYCSYLLAGGCQKRSFSIIGDFQNGKRVSLSVYLGEFFDIHLFVNGTVTQGDQRVSMPYASKGLYLETEAGYYKLSGEAYGFVARIDGSGNFQVLLSDRYFNKTCGLCGNFNIFAEDDFMTQEGTLTSDPYDFANSWALSSGEQWCERASPPSSSCNISSGEMQKGLWEQCQLLKSTSVFARCHPLVDPEPFVALCEKTLCECAGGLECACPALLEYARTCAQEGMVLYGWTDHSACSPVCPAGMEYRQCVSPCARTCQSLHINEMCQERCVDGCSCPEGQLLDEGLCVESTECPCVHSGKRYPPGTSLSRDCNTCICRNSQWICSNEECPGECLVTGQSHFKSFDNRYFTFSGICQYLLARDCQDHSFSIVIETVQCADDRDAVCTRSVTVRLPGLHNSLVKLKHGAGVAMDGQDIQLPLLKGDLRIQHTVTASVRLSYGEDLQMDWDGRGRLLVKLSPVYAGKTCGLCGNYNGNQGDDFLTPSGLAEPRVEDFGNAWKLHGDCQDLQKQHSDPCALNPRMTRFSEEACAVLTSPTFEACHRAVSPLPYLRNCRYDVCSCSDGRECLCGALASYAAACAGRGVRVAWREPGRCELNCPKGQVYLQCGTPCNLTCRSLSYPDEECNEACLEGCFCPPGLYMDERGDCVPKAQCPCYYDGEIFQPEDIFSDHHTMCYCEDGFMHCTMSGVPGSLLPDAVLSSPLSHRSKR | failed |
| MKLYQHIETLWDYMQLKQDLKPADCLFVMCSNDVRVAEHAAALYHQKLAPLIVFSGGEGRFTDGLFEKSEAETFADIARLAGVPSDAILVETRSTNSGENVRFTEQLLKEKGIQCESIILVQKPFMERRAIATFEKQWQSPYSQVQVSSTAHPFFEYINEDMPLMMVLEALMEDFSRVKSYPEKGFQTKQDIPNQVDSSYQVLLERFGFDLVLEHHHHHH | failed |
| MSKEIFDTFKFKCGAELKNRVLMAPMTIQAGYFDGSVTSEMIDYYQFRAGDASAIIVESCFVENHGRGFPGAIGIDNDDKIPGLKRLAEAIQAKGSKAILQLYHAGRMANPKFNEGEQPISASPIAALRPDAVPPREMTHAQINQMIDDFGEATRRAIEAGFDGVEIHGANTYLLQQFFSPHSNRRQDSWGGSREKRTRFPIEVLTKVQHVVAEKEASHFIIGYRFSPEEIEEPGIRFEDTMFLLNTLAEYEPDYFHISANSYQRTSIVNQEDTEPLINKYIKMQSAQLAKIPLIGVGSIAQRQDAEHALELGYDLLSVGKAYLVEPQWTDKISQNEEVEQFVDIHDQKVLHIPSPLWKVMDFMILDKEEEHRKYEKLKALQNKKVKFNKGTYHVYAKGHNGNLPMKVQLSEDKIVSIEVDDSGESEGIANPVFERLPQDIINGQTLNVDVISGATVTSEGIVQGIADAIEQAGEDPDILRARPKPVVQWSDEVVEETTDVVVIGTGGAGLSAAATVLDEGKEVIMLEKFAAIGGNTIRTGGQVNAAEPKWQNAFPALAGEKETLIQLLNHDENDIDEAYIEDFNTLKRQIKDYLENSSNEDEYLFDSVELHRIQTYLGGKRKDRNNVEISGDYDLVKTLTDNVLESVYWLKDKGVHFDRSFVDMPVGALWRRGHKPMKAQGLEYIENLGDYVKHNHGRIFTETTAEKLIKEGNQVVGIEARKANGAKVKIHTRHGVVLATGGFGANTKMLQQYNTYWDNIPDDIKTTNSPAITGDGIRLGVQAGADIVGMGFSQMMPISDPKTGALFTGLIVTPSNFVFVNKEGQRFVNEFESRDVLSKAALEQKDGIFYIIADANIKALAMNTTEDKINQELEDGTLVKADTLEALAQKLNIDTTTFVNTIERYNTFVEQGQDEDFNKNAFDLKIEKAPFYATPRKPAIHHTMGGLKINTHAQVIDVEGHIIEGLYAAGEVAGGIHAGNRLGGNALADIFTFGRIAGQSAVTK | failed |
